Measured values as given in patent publication US20210403506A1 (XDCEXPLORER SHANGHAI, published 2021).
Square brackets hold non-standard residues; d marks the D form. Primed or numbered codes have the meaning given here. Ends that are not written are not given here. * marks the point of attachment. azaTic = 3,4-dihydropyridazine-2(H)-formic acid; Pro(5R-Ph) = O=C(O)[C@@H]1CC[C@H](c2ccccc2)N1; Pro(4Ph)″ = 4-phenylproline (Pro(4-phenyl)); Bip = N[C@@H](Cc1ccc(-c2ccccc2)cc1)C(=O)O; PEG8 = NCCOCCOCCOCCOCCOCCOCCOCCOCCC(=O)O; Gly(Nα-CH2CH2CONH2) = NC(=O)CCNCC(=O)O; 1Nal = N[C@@H](Cc1cccc2ccccc12)C(=O)O; 2Nal = N[C@@H](Cc1ccc2ccccc2c1)C(=O)O; dNMeY = CN[C@H](Cc1ccc(O)cc1)C(=O)O; Palmitoyl = CCCCCCCCCCCCCCCC(=O)*; NMeQ = CN[C@@H](CCC(N)=O)C(=O)O; Tic = O=C(O)[C@@H]1Cc2ccccc2CN1; NMeL = CN[C@@H](CC(C)C)C(=O)O; NMeV = CN[C@H](C(=O)O)C(C)C; NMeS = CN[C@@H](CO)C(=O)O; dNMeS = CN[C@H](CO)C(=O)O; Thz = O=C(O)[C@@H]1CSCN1; dNMeA = CN[C@H](C)C(=O)O; Nleu = CC(C)CNCC(=O)O; βAla = NCCC(=O)O

T1: human Chemokine like receptor 1 (human, UniProt Q99788 1-373)
T1 sequence (looked up): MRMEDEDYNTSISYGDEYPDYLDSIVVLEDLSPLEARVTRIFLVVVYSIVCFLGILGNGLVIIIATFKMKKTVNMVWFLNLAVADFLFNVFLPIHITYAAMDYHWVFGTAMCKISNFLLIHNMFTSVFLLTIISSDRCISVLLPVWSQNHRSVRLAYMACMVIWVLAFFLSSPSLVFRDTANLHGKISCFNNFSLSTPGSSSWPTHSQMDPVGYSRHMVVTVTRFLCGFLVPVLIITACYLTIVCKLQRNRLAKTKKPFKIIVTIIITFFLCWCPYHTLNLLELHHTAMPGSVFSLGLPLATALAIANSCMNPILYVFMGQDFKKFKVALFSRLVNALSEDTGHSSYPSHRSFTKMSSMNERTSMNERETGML


target: T1, human Chemokine like receptor 1; assay: cell-based or functional assay

Binder	EC50 (µM), activation of Tango CMKLR1-bla U2OS cells [µM]
[dY]F[NMeL]P[dS]QF[dA][Tic]S-OH (N-terminus assumed; SMILES CC(C)C[C@@H](C(=O)N1CCC[C@H]1C(=O)N[C@H](CO)C(=O)N[C@@H](CCC(N)=O)C(=O)N[C@@H](Cc1ccccc1)C(=O)N[C@H](C)C(=O)N1Cc2ccccc2C[C@H]1C(=O)N[C@@H](CO)C(=O)O)N(C)C(=O)[C@H](Cc1ccccc1)NC(=O)[C@H](N)Cc1ccc(O)cc1) [YW-98]	0.003
[dNMeY]F[NMeL][Thz][dS]Q[2Nal][dA][Tic][NMeS]-OH (N-terminus assumed; SMILES CN[C@H](Cc1ccc(O)cc1)C(=O)N[C@@H](Cc1ccccc1)C(=O)N(C)[C@@H](CC(C)C)C(=O)N1CSC[C@H]1C(=O)N[C@H](CO)C(=O)N[C@@H](CCC(N)=O)C(=O)N[C@@H](Cc1ccc2ccccc2c1)C(=O)N[C@H](C)C(=O)N1Cc2ccccc2C[C@H]1C(=O)N(C)[C@@H](CO)C(=O)O) [YW-125]	0.0006
{3,5‑dihydroxyphenylacetyl}-[dY]FLP[dS]QF[dA][Tic]S [YW-131]	0.0029
[dY]FLP[dS]QF[dA][Tic]S-OH (not fully specified (N-terminus); printed as 3,5-dihydroxyphenylacetyl-(D-Tyr)-Phe-Leu-Pro-(D-Ser)-Gln-Phe-(D-Ala)-Tic-Ser-OH) [YW-132]	0.0055
[dY]FLP[dS]QF[dA][S‑Pip]S-OH [YW-90]	> 50
[dY]FLP[dS]QF[dA][Pro(5R-Ph)]S-OH (N-terminus assumed; SMILES CC(C)C[C@H](NC(=O)[C@H](Cc1ccccc1)NC(=O)[C@H](N)Cc1ccc(O)cc1)C(=O)N1CCC[C@H]1C(=O)N[C@H](CO)C(=O)N[C@@H](CCC(N)=O)C(=O)N[C@@H](Cc1ccccc1)C(=O)N[C@H](C)C(=O)N1[C@@H](c2ccccc2)CC[C@H]1C(=O)N[C@@H](CO)C(=O)O) [YW-91]	0.46
[dY]FLP[dS]QF[dA][Pro(4Ph)″]S-OH [YW-92]	1
[dY]FLP[dS]QF[dA][Ala(dip)]S-OH [YW-94]	8.7
[dY]FLP[dS]QF[dA][Bip]S-OH [YW-95]	30
[dY]F[NMeV]P[dS]QF[dA][Tic]S-OH [YW-99]	12
[dY]F[Nleu]P[dS]QF[dA][Tic]S-OH [YW-102]	0.31
{Palmitoyl-PEG8}-GG[dY]F[NMeL]P[dS]QF[dA][Tic]S-OH (SMILES CCCCCCCCCCCCCCCC(=O)NCCOCCOCCOCCOCCOCCOCCOCCOCCC(=O)NCC(=O)NCC(=O)N[C@H](Cc1ccc(O)cc1)C(=O)N[C@@H](Cc1ccccc1)C(=O)N(C)[C@@H](CC(C)C)C(=O)N1CCC[C@H]1C(=O)N[C@H](CO)C(=O)N[C@@H](CCC(N)=O)C(=O)N[C@@H](Cc1ccccc1)C(=O)N[C@H](C)C(=O)N1Cc2ccccc2C[C@H]1C(=O)N[C@@H](CO)C(=O)O) [YW-133]	0.0007
[dY]FLP[dNMeS]QF[dA][Tic]S-OH [YW-106]	24
[dY]FLP[dS][NMeQ]F[dA][Tic]S-OH [YW-107]	> 50
[dY]FLP[dS][Gly(Nα-CH2CH2CONH2)]F[dA][Tic]S-OH [YW-108]	> 50
[dY]FLP[dS]QF[dNMeA][Tic]S-OH [YW-109]	11
[dY]FLP[dS]Q[dS][dA][azaTic]S-OH [YW-147]	> 50
[dY]FLP[dS]QF[dA][Tic]T-OH (N-terminus assumed; SMILES CC(C)C[C@H](NC(=O)[C@H](Cc1ccccc1)NC(=O)[C@H](N)Cc1ccc(O)cc1)C(=O)N1CCC[C@H]1C(=O)N[C@H](CO)C(=O)N[C@@H](CCC(N)=O)C(=O)N[C@@H](Cc1ccccc1)C(=O)N[C@H](C)C(=O)N1Cc2ccccc2C[C@H]1C(=O)N[C@H](C(=O)O)[C@@H](C)O) [YW-160]	0.285
{Palmitoyl-PEG8}-[βAla][βAla][dY]F[NMeL]P[dS]QF[dA][Tic]S-OH (SMILES CCCCCCCCCCCCCCCC(=O)NCCOCCOCCOCCOCCOCCOCCOCCOCCC(=O)NCCC(=O)NCCC(=O)N[C@H](Cc1ccc(O)cc1)C(=O)N[C@@H](Cc1ccccc1)C(=O)N(C)[C@@H](CC(C)C)C(=O)N1CCC[C@H]1C(=O)N[C@H](CO)C(=O)N[C@@H](CCC(N)=O)C(=O)N[C@@H](Cc1ccccc1)C(=O)N[C@H](C)C(=O)N1Cc2ccccc2C[C@H]1C(=O)N[C@@H](CO)C(=O)O) [YW-134]	0.0007
[dNMeY]F[NMeL][Thz][dS]Q[1Nal][dA][Tic][NMeS]-OH (N-terminus assumed; SMILES CN[C@H](Cc1ccc(O)cc1)C(=O)N[C@@H](Cc1ccccc1)C(=O)N(C)[C@@H](CC(C)C)C(=O)N1CSC[C@H]1C(=O)N[C@H](CO)C(=O)N[C@@H](CCC(N)=O)C(=O)N[C@@H](Cc1cccc2ccccc12)C(=O)N[C@H](C)C(=O)N1Cc2ccccc2C[C@H]1C(=O)N(C)[C@@H](CO)C(=O)O) [YW-142]	0.0009
[dNMeY]F[NMeL]P[dS]Q[2Nal][dA][Tic][NMeS]-OH (N-terminus assumed; SMILES CN[C@H](Cc1ccc(O)cc1)C(=O)N[C@@H](Cc1ccccc1)C(=O)N(C)[C@@H](CC(C)C)C(=O)N1CCC[C@H]1C(=O)N[C@H](CO)C(=O)N[C@@H](CCC(N)=O)C(=O)N[C@@H](Cc1ccc2ccccc2c1)C(=O)N[C@H](C)C(=O)N1Cc2ccccc2C[C@H]1C(=O)N(C)[C@@H](CO)C(=O)O) [YW-146]	0.0014
